± gives the uncertainty stated by the source.
Experiment: self-splicing fitness, log relative to wild type (ln ratio); higher = more splicing; Tetrahymena group I intron in knt gene, E. coli kanamycin selection, DiMSum; sequences stand for … in CUCUCU…GGAGGGAAAAGUUAUCAGGCAUGCACCUGGUAGCUAGUCUUUAAACCAAUAGAUUGCAUCGGUUUAAAAGGCAAGACCGUCAAAUUGCGGGAAAGGGGUCAACAGCCGUUCAGUACCAAGUCUCAGGGGAAACUUUGAGAUGGCCUUGCAAAGGGUAUGGUAAUAAGCUGACGGACAUGGUCCUAACCACGCAGCCAAGUCCUAAGUCAACAGAUCUUCUGUUGAUAUGGAUGCAGUUCACAGACUAAAUGUCGGUCGGGGAAGAUGUAUUCUUCUCAUAAGAUAUAGUCGGACCUCUCCUUAAUGGGAGCUAGCGGAUGAAGUGAUGCAACACUGGAGCCGCUGGGAACUAAUUUGUAUGCGAAAGUAUAUUGAUUAGUUUUGGAGUACUCGUGGUCG
Procedure, shortened: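 The eight P1ex-region nucleotides of an intron in the knt kanamycin-resistance gene on pET-22b(+) were all randomised and the library put into E. coli BL21(DE3). Six replicate transformations were grown overnight at 37°C or 30°C on LB agar with or without 25 μg/mL kanamycin, together with 100 μg/mL carbenicillin, 50 μM IPTG and 0.2% rhamnose. Colonies were pooled and amplicon-sequenced on an Illumina HiSeq 2500. Fitness from DiMSum is the error-weighted combination of wild-type-normalised replicate fold changes, kanamycin over none.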

Sequence | self-splicing fitness (ln) (30 °C) | self-splicing fitness (ln) (37 °C)
GUAGAGCAAUAUUACGGGCG | -1.68 ± 0.12 | -1.19 ± 0.15
GUUUAGCAAUAUUACGUACC | -1.45 ± 0.48 | 
UGGCAGCAAUAUUACGCGUU | -1.6 ± 0.077 | -0.555 ± 0.081
CGUUAGCAAUAUUACGUUGC | -3.94 ± 0.34 | -1.95 ± 0.18
GCCCAGCAAUAUUACGAUGG | -3.53 ± 0.14 | -2.98 ± 0.18
GUACAGCAAUAUUACGCUUG | -1.97 ± 0.098 | -1.1 ± 0.12
UCAAAGCAAUAUUACGUCCU | -3.34 ± 0.29 | -1.98 ± 0.24
UCUGAGCAAUAUUACGAGUA | -2.16 ± 0.16 | -2.17 ± 0.26
ACUGAGCAAUAUUACGAUCA | -2.89 ± 0.43 | -2.9 ± 0.34
UUAAAGCAAUAUUACGCAAU | -2.44 ± 0.15 | -1.42 ± 0.17
AUGCAGCAAUAUUACGAAGC | -3.21 ± 0.19 | -0.72 ± 0.21
CGAAAGCAAUAUUACGUACG | -1.5 ± 0.076 | -1.27 ± 0.11
UCGAAGCAAUAUUACGGCAA | -1.81 ± 0.19 | -1.72 ± 0.17
ACUCAGCAAUAUUACGACAC | -1.44 ± 0.12 | -0.127 ± 0.14
UUACAGCAAUAUUACGAGUC | -4.54 ± 0.3 | -2.84 ± 0.26
UCUAAGCAAUAUUACGCCGC | -2.69 ± 0.29 | 
CAUGAGCAAUAUUACGAAUU | -4.16 ± 0.35 | -2.49 ± 0.23
CACGAGCAAUAUUACGCUAU | -2.42 ± 0.21 | -2.56 ± 0.28
AGGGAGCAAUAUUACGAAGU | -2.4 ± 0.37 | -2.14 ± 0.32
CUCCAGCAAUAUUACGUAGG | -2.92 ± 0.11 | -1.9 ± 0.15
AUUAAGCAAUAUUACGAUCC | -0.418 ± 0.11 | -0.106 ± 0.19
CACCAGCAAUAUUACGUCGG | -1.36 ± 0.059 | -0.518 ± 0.072
UAGAAGCAAUAUUACGUCAU | -2.84 ± 0.2 | -1.99 ± 0.15
CAGGAGCAAUAUUACGUGUG | -2.56 ± 0.13 | -0.614 ± 0.1

Sequence | self-splicing fitness (ln) (30 °C) | self-splicing fitness (ln) (37 °C)
GCCAAGCAAUAUUACGUUGU | -1.79 ± 0.064 | -0.73 ± 0.072
GCUGAGCAAUAUUACGAGCU | -3.66 ± 0.34 | -1.82 ± 0.22
GUCAAGCAAUAUUACGGAAU | -2.07 ± 0.12 | -1.09 ± 0.12
ACCUAGCAAUAUUACGUAUC | -2.83 ± 0.083 | -1.85 ± 0.1
CGCCAGCAAUAUUACGCGGA | -2.91 ± 0.2 | -1.99 ± 0.16
UGGUAGCAAUAUUACGUAUA | -1.51 ± 0.14 | -0.00881 ± 0.14
UGGAAGCAAUAUUACGCGUG | -0.258 ± 0.091 | -0.135 ± 0.12
ACGUAGCAAUAUUACGCGUA | -2.22 ± 0.17 | -1.74 ± 0.16
GGAAAGCAAUAUUACGGAGA | -1.97 ± 0.27 | -2.54 ± 0.26
AGCUAGCAAUAUUACGGUCU | -0.425 ± 0.068 | 0.136 ± 0.088
CCUCAGCAAUAUUACGGUAA | -3.97 ± 0.25 | -2.47 ± 0.18
UCUGAGCAAUAUUACGUUUU | -4.31 ± 0.29 | -3.26 ± 0.28
ACCUAGCAAUAUUACGCUUG | -3.5 ± 0.16 | -2.04 ± 0.16
CGAGAGCAAUAUUACGGGAG | -2.83 ± 0.16 | -0.597 ± 0.16
AACAAGCAAUAUUACGGGUA | -0.841 ± 0.063 | -0.307 ± 0.071
UUUUAGCAAUAUUACGUAAG | -0.681 ± 0.13 | -0.523 ± 0.14
GGUCAGCAAUAUUACGCCGA |  | -2.65 ± 0.48
UGUGAGCAAUAUUACGGCUG | -0.445 ± 0.12 | -0.456 ± 0.19
GCCUAGCAAUAUUACGGGCU | -3.65 ± 0.23 | -2.07 ± 0.24
GGGUAGCAAUAUUACGCAUU | -0.339 ± 0.094 | -0.245 ± 0.1
GAAAAGCAAUAUUACGCCCU | 0.325 ± 0.12 | -0.233 ± 0.14
AUCCAGCAAUAUUACGCGUA | -0.536 ± 0.089 | -0.499 ± 0.097
GUUAAGCAAUAUUACGGAAG | -3.2 ± 0.19 | -1.6 ± 0.2
GUUGAGCAAUAUUACGGAUU | -2.6 ± 0.34 | -1.56 ± 0.21
